Measured values from patent US20190359723A1 (CARSGEN THERAPEUTICS, published 2019).
Positions count from the first letter of the chain named. One block for each binder: values may come before it.

Key:
[1] = molecular target: T1, IL-13RA2 huFc (human); assay: SPR (Biacore T200), nickel-purified scFv
T1 construct: Expressed in 293F cells, purified on protein A; also called human IL13RA2; recombinant IL-13RA2
Procedure: (§1) IL-13RA2 huFc was coated on the CMS chip by amino coupling, coated to about 500 RU, and the gradiently diluted antibodies were passed through the antigen-coated channel at a flow rate of 30 ul/min as a mobile phase. The running buffer was HBS-N and the temperature was 25° C. The experimental data was analyzed by BIAevaluation 3.2 and the kinetic curves were fitted using a 1:1 langmuir model.
Affinity purification was performed using a nickel column, affinity was measured using biacore T200, and the association and dissociation constants of the affinity matured antibodies are shown as in FIG. 10A.
Target sequence in this assay (chain, as listed by the source limits assumed): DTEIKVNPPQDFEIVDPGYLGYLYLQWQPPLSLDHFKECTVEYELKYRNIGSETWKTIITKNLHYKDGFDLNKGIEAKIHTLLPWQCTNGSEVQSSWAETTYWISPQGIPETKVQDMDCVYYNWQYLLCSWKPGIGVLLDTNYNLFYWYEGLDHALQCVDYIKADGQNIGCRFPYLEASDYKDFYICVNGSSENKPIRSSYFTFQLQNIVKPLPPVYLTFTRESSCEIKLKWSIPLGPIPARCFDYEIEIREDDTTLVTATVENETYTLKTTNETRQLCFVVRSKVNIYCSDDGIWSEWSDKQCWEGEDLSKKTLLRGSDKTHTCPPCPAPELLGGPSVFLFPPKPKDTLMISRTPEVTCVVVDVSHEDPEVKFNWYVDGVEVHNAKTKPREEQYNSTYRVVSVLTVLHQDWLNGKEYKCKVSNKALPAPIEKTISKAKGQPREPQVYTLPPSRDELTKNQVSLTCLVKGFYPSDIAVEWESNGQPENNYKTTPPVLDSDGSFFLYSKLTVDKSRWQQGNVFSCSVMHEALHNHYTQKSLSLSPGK

[2] = molecular target: T1, IL-13RA2 huFc; assay: Biacore, induced supernatant of the scFv clone; parent 31C2
[3] = molecular target: T1, IL-13RA2 huFc; assay: SPR (Biacore), induced scFv supernatant; column head: Dissociation constant Kd(S-1)
[4] = molecular target: T2, IL-13RA1_huFc (human); assay: ELISA by the method of Example 3, antibody concentration not given; bars assigned by their order in the legend
T2 construct: IL-13RA1 extracellular segment, 'GS', Fc segment Asp104-Lys330 of the human IgG1 heavy chain constant region; also called human IL13RA1
T2 sequence (chain, as listed by the source limits assumed): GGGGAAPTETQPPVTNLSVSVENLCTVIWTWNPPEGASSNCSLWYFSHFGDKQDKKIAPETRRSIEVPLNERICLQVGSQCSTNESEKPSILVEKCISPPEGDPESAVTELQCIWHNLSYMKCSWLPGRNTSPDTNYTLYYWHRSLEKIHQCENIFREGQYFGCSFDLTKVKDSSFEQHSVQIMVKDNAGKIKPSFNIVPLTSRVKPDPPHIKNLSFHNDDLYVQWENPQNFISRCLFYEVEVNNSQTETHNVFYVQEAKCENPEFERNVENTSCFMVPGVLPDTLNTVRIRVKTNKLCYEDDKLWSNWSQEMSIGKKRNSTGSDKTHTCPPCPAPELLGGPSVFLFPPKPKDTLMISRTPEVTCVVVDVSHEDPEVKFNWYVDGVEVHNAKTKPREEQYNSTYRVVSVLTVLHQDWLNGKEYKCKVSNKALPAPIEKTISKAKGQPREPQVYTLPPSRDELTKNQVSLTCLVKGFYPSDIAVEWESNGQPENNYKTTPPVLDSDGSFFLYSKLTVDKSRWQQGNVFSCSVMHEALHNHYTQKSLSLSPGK
Procedure: (§2) The species specificity of antibodies 31C2 and 32H4 was determined by standard ELISA. Murine IL-13RA2 was purchased from Sino Biological Inc. The ELISA plate was coated with 100 ul of 5 ug/ml murine IL-13RA2 per well at 4° C. overnight. The coated ELISA plate was washed with PBS three times. 200 ul solution of 2% skim milk powder in PBS per well was added for blocking at room temperature for 1 hour. The plate was washed with PBS three times. The gradiently diluted antibodies with a starting concentration of 10 μg/ml, 3-fold serially diluted, were added and incubated at room temperature for 1 hr. The mixture was washed with PBST three times and washed with PBS three times. HRP-labeled goat anti-human Fc was added and incubated at room temperature for 1 hour. The mixture was washed with PBST three times and washed with PBS three times. After TMB was added for color development for 15 minutes, and the reaction was stopped by the addition of sulfuric acid, and read on a microplate reader.
(§3) The specificity of the antibodies 5D7, 2C7, 5G3, 2D4, 2D3 and 1B11 was determined by standard ELISA following the method of Example 3. The results were shown as in FIG. 10B.

[5] = molecular target: T3, Murine IL-13RA2 (murine, UniProt O88786 22-334, limits assumed); assay: as above
T3 construct: Bought recombinant protein; coated on the ELISA plate at 5 ug/ml
T3 sequence (looked up): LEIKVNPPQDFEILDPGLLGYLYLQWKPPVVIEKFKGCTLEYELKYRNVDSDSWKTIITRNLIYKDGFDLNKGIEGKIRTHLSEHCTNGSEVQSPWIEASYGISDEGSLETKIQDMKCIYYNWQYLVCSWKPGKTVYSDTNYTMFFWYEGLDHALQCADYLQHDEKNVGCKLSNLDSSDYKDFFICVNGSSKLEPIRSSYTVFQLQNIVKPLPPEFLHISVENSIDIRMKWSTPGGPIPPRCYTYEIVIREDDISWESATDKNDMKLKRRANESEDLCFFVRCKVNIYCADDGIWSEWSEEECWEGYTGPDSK
Procedure: as §2, §3

[6] = molecular target: T1, IL-13RA2 huFc; assay: SPR (Biacore T200), scFv_Fc forms on IL-13RA2 huFc, summary table
Procedure: as §1
(§4) Affinity was determined using the method of Example 5 using biacore T200, and the results are shown as in FIGS. 11B-11G. […] The association and dissociation constants of the antibodies are shown as in FIG. 11F.

[7] = molecular target: T4, IL-13RA2 endogenously expressed on U251 cells (human, UniProt Q14627 27-380); assay: flow cytometry on U251 cells, scFv_Fc form, 5-fold dilutions from 2,000 nM, FITC anti-human IgG
T4 construct: whole, on cells; also called U251 cells expressing IL13RA2; U251 (IL-13RA2-positive)
T4 sequence (looked up): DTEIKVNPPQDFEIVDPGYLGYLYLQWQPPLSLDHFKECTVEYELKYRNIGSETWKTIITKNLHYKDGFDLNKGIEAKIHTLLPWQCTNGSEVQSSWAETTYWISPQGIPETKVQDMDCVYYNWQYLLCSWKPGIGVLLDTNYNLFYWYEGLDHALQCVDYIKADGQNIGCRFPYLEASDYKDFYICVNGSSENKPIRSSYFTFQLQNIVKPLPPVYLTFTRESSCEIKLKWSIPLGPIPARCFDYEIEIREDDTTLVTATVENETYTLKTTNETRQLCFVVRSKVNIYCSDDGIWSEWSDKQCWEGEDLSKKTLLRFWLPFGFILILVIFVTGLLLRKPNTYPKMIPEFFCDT
Procedure: Following the method of Example 6, cells were harvested, washed once with a growth medium, and resuspended in PBS, and the cell concentration was adjusted to 4E+5 cells/ml. The gradiently diluted scFv_Fc fusion antibody was incubated with the cells for 30 minutes on ice, and the antibody was 5-fold serially diluted with 2,000 nM as the initial concentration, into 11 gradients. Then the mixture was incubated with a FITC-labeled anti-human IgG secondary antibody. After two washing steps, detection was performed using a Guava easyCyte™ HT System instrument. […] There is also a 2-8 fold increase compared with the parent antibody.

[8] = molecular target: T1, IL-13RA2 huFc; assay: SPR (Biacore T200), ligand IL13Ra2 on the chip, scFv_Fc as analyte at 6.25 to 100 nM, 1:1 binding fit, flow 30 ul/min
Procedure: as §1, §4

[9] = molecular target: T1, IL-13RA2 huFc; assay: Biacore, induced supernatant of the scFv clone; parent 32H4
[10] = molecular target: T1, IL-13RA2 huFc; assay: SPR (Biacore T200), ligand IL13Ra2 on the chip, scFv_Fc as analyte at 100, 50, 25 and 6.25 nM, 1:1 binding fit, flow 30 ul/min
Procedure: as §1, §4

B1: 1B11 (scFv) (scFv)
scFv: EVQLLESGGGLVQPGGSLRLSCAASGFTFSRDALNWVRQAPGKGLEWVSAISGSGGSTFYADSVKGRFTISRDNSKNTLYLQMNSLRAEDTAVYYCAKVRYGWGAGAFDYWGQGTLVTVSSGGGGSGGGGSGGGGSDIQMTQSPSTLSASVGDRVTITCRASQSISSWLAWYQQKPGKAPKLLIYDASSLESGVPSRFSGSGSGTEFTLTISSLQPDDFATYYCQQYDTYPPITFGQGTKVEIK
notes: also called clone 1B11
- Kd [1]: 17.5 nM
- koff [1]: 0.000803 s⁻¹
- kon [1]: 46000 M⁻¹ s⁻¹
- fold lower dissociation constant Kd than the parent clone [2]: > 10 times
- koff [3]: 0.000736 s⁻¹
- binding result [4]: no binding
- binding result [5]: binds

B2: 1B11 (scFv_Fc form) (Fc fusion)
scFv: B1 scFv
notes: not shown: human Fc segment of the eukaryotic expression vector V152
- Kd [6]: 1.04 nM
- koff [6]: 0.000263 s⁻¹
- kon [6]: 253000 M⁻¹ s⁻¹
- EC50 [7]: 0.47 nM
- Kd [8]: 1.04 nM
- koff [8]: 0.000263 s⁻¹
- kon [8]: 252000 M⁻¹ s⁻¹

B6: 1H7 (scFv) (scFv)
scFv: B1 scFv with S30R, D32Y, L34M, N35S, A50G, S57G, F59Y
notes: also called clone 1H7
- Kd [1]: 12.1 nM
- koff [1]: 0.000765 s⁻¹
- kon [1]: 63200 M⁻¹ s⁻¹
- fold lower dissociation constant Kd than the parent clone [2]: > 10 times
- koff [3]: 0.000888 s⁻¹

B8: 2C7 (scFv_Fc form) (Fc fusion)
scFv: B1 scFv with S30K, R31L, D32P, L34M, N35S, S52T, F59Y
notes: as for B2
- Kd [6]: 0.248 nM
- koff [6]: 9.15e-05 s⁻¹
- kon [6]: 369000 M⁻¹ s⁻¹
- EC50 [7]: 0.57 nM
- Kd [8]: 0.248 nM
- koff [8]: 9.15e-05 s⁻¹
- kon [8]: 369000 M⁻¹ s⁻¹

B9: 1D8 (scFv) (scFv)
scFv: B1 scFv with D32Y, L34M, S52N, G53A, F59Y
notes: also called clone 1D8
- Kd [1]: 13.8 nM
- koff [1]: 0.000911 s⁻¹
- kon [1]: 66000 M⁻¹ s⁻¹
- fold lower dissociation constant Kd than the parent clone [2]: > 10 times
- koff [3]: 0.00094 s⁻¹

B10: 2A5 (scFv) (scFv)
scFv: B1 scFv with D32Y, L34M, G53A, S57G, F59Y
notes: also called clone 2A5
- Kd [1]: 15.5 nM
- koff [1]: 0.000656 s⁻¹
- kon [1]: 42400 M⁻¹ s⁻¹
- fold lower dissociation constant Kd than the parent clone [2]: > 10 times
- koff [3]: 0.000788 s⁻¹

B14: 5G3 (scFv_Fc form) (Fc fusion)
scFv: EVQLLESGGGLVQPGGSLRLSCAASGFTFSSYVLSWVRQAPGKGLEWVSAIRGSAGNTYYADSVKGRFTISRDNSKNTLYLQMNSLRAEDTAVYYCARVAFSGSFDYWGQGTLVTVSSGGGGSGGGGSGGGGSDIQMTQSPSTLSASVGDRVTITCRASQSISSWLAWYQQKPGKAPKLLIYDASSLESGVPSRFSGSGSGTEFTLTISSLQPDDFATYYCQQRNRYPPTFGQGTKVEIK
notes: as for B2
- Kd [6]: 0.194 nM
- koff [6]: 0.000134 s⁻¹
- kon [6]: 690000 M⁻¹ s⁻¹
- EC50 [7]: 0.53 nM
- Kd [10]: 0.194 nM
- koff [10]: 0.000134 s⁻¹
- kon [10]: 690000 M⁻¹ s⁻¹

Next, values leading:

- Kd [1]: 5.42 nM
- koff [1]: 0.00041 s⁻¹
- kon [1]: 75700 M⁻¹ s⁻¹
- fold lower dissociation constant Kd than the parent clone [2]: 10 times
- koff [3]: 0.000501 s⁻¹
B3: 2C7 (scFv) (scFv)
scFv: B1 scFv with S30K, R31L, D32P, L34M, N35S, S52T, F59Y
notes: also called clone 2C7

- Kd [1]: 9.89 nM
- koff [1]: 0.000386 s⁻¹
- kon [1]: 39000 M⁻¹ s⁻¹
- fold lower dissociation constant Kd than the parent clone [2]: > 10 times
- koff [3]: 0.000677 s⁻¹
B4: 1D11 (scFv) (scFv)
scFv: B1 scFv with S30G, R31T, D32I, A33P, L34M, N35S, A50S, G55A, F59Y
notes: also called clone 1D11

- Kd [1]: 8.92 nM
- koff [1]: 0.000745 s⁻¹
- kon [1]: 83500 M⁻¹ s⁻¹
- fold lower dissociation constant Kd than the parent clone [2]: > 10 times
- koff [3]: 0.000837 s⁻¹
- binding result [4]: no binding
- binding result [5]: binds
B5: 2D4 (scFv) (scFv)
scFv: B1 scFv with S30R, R31K, D32Y, L34M, N35G, A50G, G55V, F59Y
notes: also called clone 2D4

- Kd [6]: 0.174 nM
- koff [6]: 0.000113 s⁻¹
- kon [6]: 646000 M⁻¹ s⁻¹
- EC50 [7]: 0.37 nM
- Kd [8]: 0.174 nM
- koff [8]: 0.000113 s⁻¹
- kon [8]: 646000 M⁻¹ s⁻¹
B7: 2D4 (scFv_Fc form) (Fc fusion)
scFv: B1 scFv with S30R, R31K, D32Y, L34M, N35G, A50G, G55V, F59Y
notes: as for B2

- Kd [1]: 5.4 nM
- koff [1]: 0.000443 s⁻¹
- kon [1]: 82200 M⁻¹ s⁻¹
- fold lower dissociation constant Kd than the parent clone [9]: > 10 times
- koff [3]: 0.00154 s⁻¹
B11: 5D7 (scFv) (scFv)
scFv: B14 scFv with S31N, V33A, L34M, A50G, G53S, A55G, N57R, Y59F
notes: also called clone 5D7

- Kd [6]: 0.335 nM
- koff [6]: 0.000247 s⁻¹
- kon [6]: 737000 M⁻¹ s⁻¹
- EC50 [7]: 0.56 nM
- Kd [8]: 0.335 nM
- koff [8]: 0.000247 s⁻¹
- kon [8]: 737000 M⁻¹ s⁻¹
B12: 5D7 (scFv_Fc form) (Fc fusion)
scFv: B14 scFv with S31N, V33A, L34M, A50G, G53S, A55G, N57R, Y59F
notes: as for B2

- Kd [1]: 8.34 nM
- koff [1]: 0.000586 s⁻¹
- kon [1]: 70300 M⁻¹ s⁻¹
- fold lower dissociation constant Kd than the parent clone [9]: > 10 times
- koff [3]: 0.000941 s⁻¹
B13: 5G3 (scFv) (scFv)
scFv: B14 scFv
notes: also called clone 5G3
